The record followed here is paper PMC3103603 (Immunity, 2011).

The test concerns the target T1, wild-type human B7-H2Ig fusion protein (human, UniProt O75144 19-256).
T1 sequence (looked up): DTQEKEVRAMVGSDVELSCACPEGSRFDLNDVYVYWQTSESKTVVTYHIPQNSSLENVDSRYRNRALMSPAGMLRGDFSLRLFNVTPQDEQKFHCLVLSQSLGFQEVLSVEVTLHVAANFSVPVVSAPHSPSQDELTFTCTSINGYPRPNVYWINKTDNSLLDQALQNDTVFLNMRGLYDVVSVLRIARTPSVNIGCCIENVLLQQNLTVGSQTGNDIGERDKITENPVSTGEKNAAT
As to the kind of experiment: flow cytometry on cells. (In flow cytometry, cells or beads pass a laser one at a time.)

B1: human ICOSIg fusion protein (Fc fusion, UniProt Q9Y6W8 21-140, looked up)
chain: EINGSANYEMFIFHNGGVQILCKYPDIVQQFKMQLLKGGQILCDLTKTKGSGNTVSIKSLKFCHSQLSNNSVSFFLYNLDHSHANYYFCNLSIFDPPPFKVTLTGGYLHIYESQLCCQLK
On to B1, for which the binding result is “binds”.
